Measurements: publication PMC5384220 (2017)

Biological target: T1, His-KDM4A_(1–359)-Bio (human, UniProt O75164 1-359, biotin on the AviTag (>95% biotinylation))
T1 chain: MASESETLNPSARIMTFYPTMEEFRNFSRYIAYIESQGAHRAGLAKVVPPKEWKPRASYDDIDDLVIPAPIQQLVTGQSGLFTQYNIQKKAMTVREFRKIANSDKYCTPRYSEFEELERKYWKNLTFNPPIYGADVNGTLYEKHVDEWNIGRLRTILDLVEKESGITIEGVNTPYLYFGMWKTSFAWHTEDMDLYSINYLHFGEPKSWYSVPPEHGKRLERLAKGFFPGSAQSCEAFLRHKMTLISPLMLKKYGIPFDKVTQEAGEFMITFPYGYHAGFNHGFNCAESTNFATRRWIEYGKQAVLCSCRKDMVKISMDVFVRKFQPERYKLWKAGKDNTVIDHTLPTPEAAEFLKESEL
Assay: BLI

- Kd: 110 µM
B1: H3(1–15)K9me3 (peptide)
peptide: ARTKQTARKSTGGKA
modifications: trimethyl-lysine at 9
